Reference: US20220185881A1 (JIANGSU HENGRUI MEDICINE, published 2022)
Blank lines part the entries; values can stand above or below the binder they belong to.

Target: human Claudin 18.2 (human)
Assay: cell-based or functional assay

- IC50 (ng/ml), ADCC effect (FcrR3A-V158-NFAT-RE-Jurkat effector cells, Bright-Glo), NUGC4 cells with high expression of Claudin 18.2: 133 ng/mL
- IC50 (ng/ml), ADCC effect (FcrR3A-V158-NFAT-RE-Jurkat effector cells, Bright-Glo), NUGC4 cells with low expression of Claudin 18.2: 183 ng/mL
- IC50 (ng/ml), ADCC effect (FcrR3A-V158-NFAT-RE-Jurkat effector cells, Bright-Glo), NUGC4 cells with medium expression of Claudin 18.2: 210 ng/mL
B1: IMAB-362 (antibody, human IgG1, kappa, V domains shown)
VH: QVQLQQPGAELVRPGASVKLSCKASGYTFTSYWINWVKQRPGQGLEWIGNIYPSDSYTNYNQKFKDKATLTVDKSSSTAYMQLSSPTSEDSAVYYCTRSWRGNSFDYWGQGTTLTVSS
VL: DIVMTQSPSSLTVTAGEKVTMSCKSSQSLLNSGNQKNYLTWYQQKPGQPPKLLIYWASTRESGVPDRFTGSGSGTDFTLTISSVQAEDLAVYYCQNDYSYPFTFGSGTKLEIKR

- IC50 (ng/ml), ADCC effect (FcrR3A-V158-NFAT-RE-Jurkat effector cells, Bright-Glo), NUGC4 cells with high expression of Claudin 18.2: 26.2 ng/mL
- IC50 (ng/ml), ADCC effect (FcrR3A-V158-NFAT-RE-Jurkat effector cells, Bright-Glo), NUGC4 cells with low expression of Claudin 18.2: 22.4 ng/mL
- IC50 (ng/ml), ADCC effect (FcrR3A-V158-NFAT-RE-Jurkat effector cells, Bright-Glo), NUGC4 cells with medium expression of Claudin 18.2: 15.3 ng/mL
B2: h1901-11 (antibody, human IgG1, kappa, V domains shown)
VH: EVQLVESGGGLVQPGGSLRLSCAASGFTFSDYGIHWVRQAPGKGLEWIAYISRGSSTIYYADTVKGRFTISRDNAKNSLYLQMTSLRAEDTAVYYCARGGYDTRNAMDYWGQGTTVTVSS
VL: DIVMTQSPDSLAVSLGERATISCKSSQSLLNSGNQKNYLAWYQQKPGQPPKLLIYGASTRASGVPDRFSGSGSGTDFTLTISSLQAEDVAIYHCQNDLYYPLTFGQGTKLEIKR
